Laboratory results as given in publication PMC3439924 (Nucleic Acids Research, 2012).
Substitutions are numbered along the chain they refer to. Names may count otherwise. Where two headings read alike, the source gives them in different places.

Columns and labels:
crystal structure = target: the molecule itself; assay: crystal structure
RNase T E92G [1] = target: T1, RNase T E92G (Escherichia coli, UniProt P30014 1-215, E92G); assay: X-ray crystallography
T1 sequence: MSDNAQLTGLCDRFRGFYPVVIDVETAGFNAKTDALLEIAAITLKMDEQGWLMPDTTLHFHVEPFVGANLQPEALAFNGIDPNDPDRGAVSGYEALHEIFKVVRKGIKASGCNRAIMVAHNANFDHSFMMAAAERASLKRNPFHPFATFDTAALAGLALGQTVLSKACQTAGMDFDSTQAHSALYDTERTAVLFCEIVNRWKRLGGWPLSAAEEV

RNase T E92G [2] = target: T1, RNase T E92G; assay: X-ray crystallography; remark: listed apart in the source
RNase T [3] = target: T2, RNase T (Escherichia coli, UniProt P30014 1-215); assay: X-ray crystallography
T2 sequence: T1 sequence with G92E

RNase T [4] = target: T2, RNase T; assay: X-ray crystallography; remark: listed apart in the source

B1: RNase T E92G mutant (E. coli) (enzyme, UniProt P30014 1-215, looked up)
chain: T1 sequence
B1: binds (crystal structure).

B2: RNase T (wild-type, E. coli) (enzyme, UniProt P30014 1-215, looked up)
chain: T1 sequence with G92E
B2: binds (crystal structure).

B3: ssDNA 3'-end AAT (ssDNA)
DNA: TTACAAT
B3: binds (RNase T E92G [1]).

B4: stem-loop DNA, 2-nt 3'-overhang (structured_DNA)
DNA: GGCCCTCTTTAGGGCCTT
B4: binds (RNase T E92G [2]).

B5: ssDNA 3'-end TTA (ssDNA)
DNA: GCTTA
B5: binds (RNase T E92G [1]).

B6: ssDNA 3'-end ACC (ssDNA)
DNA: TTACACC
B6: binds (RNase T [3]).

B7: ssDNA 3'-end AAA (ssDNA)
DNA: TTATAAA
B7: binds (RNase T [4]).

B8: ssDNA 3'-end AAC (ssDNA)
DNA: TTACAAC
B8: binds (RNase T [3]).
